According to patent publication US10858423B2, “Composition for the treatment of IGF-1R expressing cancer” (PIERRE FABRE MEDICAMENT, priority 2015, dated 2020):

Legend:
IGF-1R, SBC-5 tumor = target: T1, IGF-1R, SBC-5 tumor (Homo sapiens, UniProt P08069); experiment: IHC detection of IGF-1R on SBC-5 xenograft sections; parameters: key: No reactivity or membranous reactivity in less than 10% of tumour cells; 1+: Faint/barely perceptible membranous reactivity is detected in more than 10% of tumour cells. The cells are immunoreactive only in part of the membrane.; 2+: Weak to moderate complete membranous reactivity is seen in more than 10% of tumour cells.; 3+: Strong complete reactivity is seen in more than 10% of tumour cells; conditions: same protocol as MCF-7; paraffin embedded tumor
T1 construct: from tissue; host or cells: SBC-5 xenograft tumour grown in athymic mice, paraffin sections
Procedure: (§1) Sections of tissue from MCF-7 xenograft were deparaffinized, rehydrated, and placed in Target Retrieval Buffer 1× (Dako S1699) in a boiling bath pre-warm at 98° C. for heat-induced epitope retrieval at 98° C. for 40 minutes then 20 additional minutes in the Target Retrieval Buffer. After 3 washes in Tris Buffer Saline-0.05% tween 20 (TBS-T) (Dako S3006) the Endogenous peroxidase activity was blocked using Peroxidase Blocking Reagent (Dako K4007) for five minutes. Sections were washed with TBS-T and incubated a blocking reagent (UltraV block-TA-125UB-LabVision) for 5 minutes before incubation with either the 816C12 monoclonal antibody (at 5 μg/ml) or mouse IgG1/kappa (5 μg/ml, X0931, Dako) as negative control for 1 hours at room temperature. Sections were washed with TBS-T and incubated with Envision (Dako) for 30 minutes. Diaminobenzidine was used for development of a brown reaction product (Dako K3468). The slides were immersed in hematoxylin for 2 minutes to counterstain (Dako S3309).
Level of IGF-1R was analyzed using the same protocol described in section 2.1 of the example 2 before.

[1] = target: T2, IGF-1R, MCF-7 tumor cells (Homo sapiens, UniProt P08069); experiment: IHC detection of IGF-1R on MCF-7 xenograft sections; parameters: key: No reactivity or membranous reactivity in less than 10% of tumour cells; 1+: Faint/barely perceptible membranous reactivity is detected in more than 10% of tumour cells. The cells are immunoreactive only in part of the membrane.; 2+: Weak to moderate complete membranous reactivity is seen in more than 10% of tumour cells.; 3+: Strong complete reactivity is seen in more than 10% of tumour cells; conditions: membranous algorithm; antibody 5 μg/ml; paraffin embedded tumor
T2 construct: from tissue; host or cells: MCF-7 xenograft tumour grown in Swiss/Nude mice, paraffin sections
Procedure: as §1

rmIGF-1R = rmIGF-1R (Mus musculus, UniProt Q60751); experiment: direct ELISA on rmIGF-1R coating (816C12, 810D12); format: binding, murine; conditions: for OD values obtained at 5 μg/ml by ELISA, rmIGF-1R coating: OD at 450 nm; for binding to the murine form of the IGF-1R: ELISA
Procedure: (§2) Further characterizations of 816C12 and 810D12 were then performed using hybridoma supernatant such as rhIGF-1R or rmIGF-1R or rhIR ELISA. In all direct ELISAs, proteins of interest were immobilized (1 μg/ml) to the bottom of each well. After saturation, hybridoma supernatants were added to the wells. After a 1-hour incubation period and a washing step, a solution of goat anti-mouse IgG—HRP labelled polyclonal antibody was used for detection, prior to the addition of the TMB substrate. The reaction was stopped with a 1M H2SO4 solution before reading the OD with a spectrophotometer at a 450 nm wavelength.

rhIR = rhIR (Homo sapiens, UniProt P06213); experiment: direct ELISA on rhIR coating (816C12, 810D12); format: binding; conditions: for OD values obtained at 5 μg/ml by ELISA, rhIR coating: OD at 450 nm; for binding to the human IR: ELISA
Procedure: as §2

rhIGF-1R = target: T3, rhIGF-1R (Homo sapiens, UniProt P08069); experiment: direct ELISA on rhIGF-1R coating (816C12, 810D12); format: binding; conditions: for OD values obtained at 5 μg/ml by ELISA, rhIGF-1R coating: OD at 450 nm; for EC50: ELISA dose response, Prism
T3 construct: poorly recognize the rhIGF-1R ECD protein when directly coated to ELISA plates; purchased R&D Systems 391-GR
Procedure: as §2
The dose response curves for the second IGF-1R antibodies on rhIGF-1R coating are presented in FIG. 1 for the 816C12 and in FIG. 1B for the 810D12. The values of the EC50 are determined using Prism application.

soluble form of h-IGF1R = target: T4, soluble form of h-IGF1R (Homo sapiens, UniProt P08069); experiment: Biacore binding competition on captured soluble h-IGF1R; conditions: antibodies 50 μg/ml, 25° C.
T4 construct: a heterotetramer composed by two alpha chains and two extracellular domains of the beta chains; made in house
Description: The experiment was run on a Biacore X100 device based on the Surface Plasmon Resonance technology. A CM5 sensor chip was activated with a mouse anti-polyHistidine IgG1 monoclonal antibody chemically linked to the carboxymethyldextran matrix using the amine coupling chemistry. Typically, 12451 RU and 12257 RU of antibodies were grafted on the flowcell 1 (FC1) and flowcell 2 (FC2) respectively. The classical HBS-EP+ buffer was used as the running buffer. This buffer was also used for the preparation of the solutions of the proteins. The experiment was carried at 25° C. and at a flow rate of […].
The soluble form of IGF1R produced in house is a heterotetramer composed by two alpha chains and two extracellular domains of the beta chains completed by a 6 Histidine sequence at their C-terminal end. The protein is injected during one minute on the FC2 at the concentration of 30 μg/ml (about 80 nM). The antibodies are injected at the concentration of 50 μg/ml (about 330 nM). Either a first antibody solution (FIGS. 35B and 35D) or the running buffer (FIGS. 35A and 35C) is injected during 90 s on both flowcells. A second antibody solution is then injected on both flow cells. The absence of binding of the second antibody after the binding of the first antibody is the proof that both antibodies bind to a nearby site on the antigen (FIG. 35B) At the opposite the binding of the second antibody after the binding of the first antibody is the proof that the binding site of the second antibody is out and away of the binding site of the first antibody (FIG. 35D). At the end of each cycle, the sensor chip surface is regenerated by an injection of a Glycine, HCl 10 mM pH 1.5 buffer during 30 s.
The levels of binding of the Ac2 (arrows) without (FIGS. 35A and 35B) or with an Ac1 (FIGS. 35C and 35D) were recorded 20 s after the end of the injection. The data are represented on the histogram graph in FIG. 36.

[2] = target: T5, MCF-7 breast adenocarcinoma cell line (Homo sapiens, UniProt P08069); experiment: FACS binding of humanized variants on MCF-7
T5 construct: host or cells: MCF-7
Procedure: The binding properties of the humanized variants were evaluated by FACS analyses on the human MCF-7 breast adenocarcinoma cell line and the monkey cell line Cos-7 using increasing antibody concentrations. For that purpose, cells (1×10^6 cells/ml) were incubated with anti-IGF-1R antibodies for 20 min. at 4° C. in FACS buffer (PBS, 0.1% BSA, 0.01% NaN3). They were then washed 3 times and incubated with the appropriate secondary antibody coupled with Alexa 488 for 20 additional minutes at 4° C. in the dark before being washed 3 times in FACS buffer. The binding of anti-IGF-1R antibodies was immediately performed on viable cells which were identified using propidium iodide (that stains dead cells). The EC50 of binding expressed in molarity (M) was calculated using a nonlinear regression analysis (GraphPad Prims 4.0).

rmIGF-1R, sequence (Q60751 31-1373): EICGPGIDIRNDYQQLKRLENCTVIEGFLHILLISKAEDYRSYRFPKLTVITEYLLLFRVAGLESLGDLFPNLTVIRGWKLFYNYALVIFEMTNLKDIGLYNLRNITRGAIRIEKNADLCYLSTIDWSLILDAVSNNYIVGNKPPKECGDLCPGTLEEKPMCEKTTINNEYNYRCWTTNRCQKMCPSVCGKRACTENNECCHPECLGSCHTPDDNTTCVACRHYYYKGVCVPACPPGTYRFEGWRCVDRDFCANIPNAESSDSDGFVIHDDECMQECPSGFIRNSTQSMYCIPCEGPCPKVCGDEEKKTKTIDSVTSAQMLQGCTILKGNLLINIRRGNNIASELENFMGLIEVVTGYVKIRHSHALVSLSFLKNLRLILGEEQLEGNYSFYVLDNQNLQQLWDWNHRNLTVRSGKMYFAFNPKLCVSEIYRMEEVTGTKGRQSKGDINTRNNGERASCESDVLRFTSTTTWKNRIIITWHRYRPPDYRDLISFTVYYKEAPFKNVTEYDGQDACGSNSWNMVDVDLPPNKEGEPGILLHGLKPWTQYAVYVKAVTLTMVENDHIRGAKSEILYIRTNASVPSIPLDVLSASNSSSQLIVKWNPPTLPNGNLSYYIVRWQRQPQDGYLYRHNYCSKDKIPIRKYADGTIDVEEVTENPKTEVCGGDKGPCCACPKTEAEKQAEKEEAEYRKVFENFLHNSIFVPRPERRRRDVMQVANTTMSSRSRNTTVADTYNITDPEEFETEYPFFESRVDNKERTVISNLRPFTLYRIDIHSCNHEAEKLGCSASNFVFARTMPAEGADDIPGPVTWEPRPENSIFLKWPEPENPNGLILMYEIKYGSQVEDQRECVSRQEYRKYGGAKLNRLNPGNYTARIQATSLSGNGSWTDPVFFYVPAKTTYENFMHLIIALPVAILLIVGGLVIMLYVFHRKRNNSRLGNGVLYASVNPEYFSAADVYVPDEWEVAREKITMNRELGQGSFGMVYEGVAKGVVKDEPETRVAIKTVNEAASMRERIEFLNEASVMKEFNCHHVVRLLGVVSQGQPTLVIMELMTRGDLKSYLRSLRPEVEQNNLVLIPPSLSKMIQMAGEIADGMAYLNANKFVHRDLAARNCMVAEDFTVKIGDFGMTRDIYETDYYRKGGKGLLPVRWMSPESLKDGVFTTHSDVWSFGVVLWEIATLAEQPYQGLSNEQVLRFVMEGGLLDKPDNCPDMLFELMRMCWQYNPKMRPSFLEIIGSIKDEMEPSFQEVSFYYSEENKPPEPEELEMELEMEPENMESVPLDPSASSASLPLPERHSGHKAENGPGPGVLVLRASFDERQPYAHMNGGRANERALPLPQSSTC

IHC scoring of IGF-1R in SBC-5 tumor (IGF-1R, SBC-5 tumor)	IHC scoring of the staining of MCF-7 tumor cells [1]	OD values obtained at 5 μg/ml by ELISA, rmIGF-1R coating (rmIGF-1R)	binding to the murine form of the IGF-1R (rmIGF-1R)	OD values obtained at 5 μg/ml by ELISA, rhIR coating (rhIR)	binding to the human IR (rhIR)	OD values obtained at 5 μg/ml by ELISA, rhIGF-1R coating (rhIGF-1R)	EC50 (rhIGF-1R) [nM]	binding as Ac2 after Hz208F2-4 injected as Ac1 (soluble form of h-IGF1R)	EC50 [2] [nM]	Molecule
									0.66	hz208F2 H049/L021: humanized 208F2; VH SEQ ID No. 41, VL SEQ ID No. 37 (antibody, V domains shown, hz208F2 heavy chain H049, VH; hz208F2 Light chain L021, VL) VH: QVQLVQSGAEVKKPGASVKVSCKASGYTFTSYYMHWVRQAPGQGLEWMGWIWPGDGSTKYAQKFQGRVTMTRDKSSSTVYMELSSLRSEDTAVYYCASPMITPNYAMDYWGQGTLVTVSS VL: DIQMTQSPSSLSASVGDRVTITCRASQDISKYLNWYQQKPGKAPKLLIYYTSRLHSGVPSRFSGRGSGTDFSLTISSLQPEDFATYFCQQGSTLPYTFGGGTKVEIK
									0.58	hz208F2 H076/L021: humanized 208F2; VH SEQ ID No. 55, VL SEQ ID No. 37 (antibody, V domains shown, hz208F2 heavy chain H076, VH; hz208F2 Light chain L021, VL) VH: QVQLVQSGAEVKKPGASVKVSCKASGYTFTSYYIHWVRQAPGQGLEWMGWIWPGDGSTKYAQKFQGRVTMTRDTSTSTVYMELSSLRSEDTAVYYCASPMITPNYAMDYWGQGTLVTVSS VL: DIQMTQSPSSLSASVGDRVTITCRASQDISKYLNWYQQKPGKAPKLLIYYTSRLHSGVPSRFSGRGSGTDFSLTISSLQPEDFATYFCQQGSTLPYTFGGGTKVEIK

The next lines start with the molecule.

Molecule	IHC scoring of IGF-1R in SBC-5 tumor (IGF-1R, SBC-5 tumor)	IHC scoring of the staining of MCF-7 tumor cells [1]	OD values obtained at 5 μg/ml by ELISA, rmIGF-1R coating (rmIGF-1R)	binding to the murine form of the IGF-1R (rmIGF-1R)	OD values obtained at 5 μg/ml by ELISA, rhIR coating (rhIR)	binding to the human IR (rhIR)	OD values obtained at 5 μg/ml by ELISA, rhIGF-1R coating (rhIGF-1R)	EC50 (rhIGF-1R) [nM]	binding as Ac2 after Hz208F2-4 injected as Ac1 (soluble form of h-IGF1R)	EC50 [2] [nM]
810D12: first IGF-1R mouse monoclonal antibody, hybridoma CNCM I-4893; VH SEQ ID No. 7, VL SEQ ID No. 8 (antibody, V domains shown, 810D12 I-4893, heavy chain, Variable domain; 810D12 I-4893, light chain, Variable domain) VH: EVQLQQSGPELVKPGASVKMSCKASGHTFTSYMLHWVKQKPGQGLEWLGFINPYNDVTKYNENFKGKATLTSDKSSSTAYMELNSLTSEDSAVYFCVTTAYYGNGRYFDVWGAGTTVTVSS VL: DIQMTQTTSSLSASLGDRVTISCRASQDITNYLTWYQQKPDGTVKVLIYYTSRLYSGVPSRFSGSGSGSDYSLTINNLEQEDIATYFCQQGYSLPWTFGGGTKLEIK	1+	3+	1.293	do not bind	0.048	do not bind	2.136	0.51	practically no effect	
816C12: first IGF-1R mouse monoclonal antibody, hybridoma CNCM I-4894; VH SEQ ID No. 17, VL SEQ ID No. 18 (antibody, V domains shown, 816C12 I-4894, heavy chain, Variable domain; 816C12 I-4894, light chain, Variable domain) VH: EVQLQQSGPELVKPGASVKMSCKASGHTFTSYVLHWMKRKPGQGLEWIGYINPHNDVTKYNENFKGKATLTSDKYSSTVYMEVSSLTSEDSAVYYCVSTAYYGNGRYFDVWGAGTTVTVSS VL: DIQMTQTTSSLSASLGDRVTISCRASQDINNYLNWYQQKPDGTVKLLIYYTSRLHSGVSSRFSGSGSGTDYSLTISNLEQEDIATYFCQQGNTLPWTFGGGTKLEIK	1+	3+	0.065	do not bind	0.055	do not bind	2.622	0.41	practically no effect	
